Molecular target: Human Prolactin Receptor (PrlR) (human) (UniProt P16471)
Assay: cell-based or functional assay

UniProt P16471, sequence (P16471 25-622 limits assumed): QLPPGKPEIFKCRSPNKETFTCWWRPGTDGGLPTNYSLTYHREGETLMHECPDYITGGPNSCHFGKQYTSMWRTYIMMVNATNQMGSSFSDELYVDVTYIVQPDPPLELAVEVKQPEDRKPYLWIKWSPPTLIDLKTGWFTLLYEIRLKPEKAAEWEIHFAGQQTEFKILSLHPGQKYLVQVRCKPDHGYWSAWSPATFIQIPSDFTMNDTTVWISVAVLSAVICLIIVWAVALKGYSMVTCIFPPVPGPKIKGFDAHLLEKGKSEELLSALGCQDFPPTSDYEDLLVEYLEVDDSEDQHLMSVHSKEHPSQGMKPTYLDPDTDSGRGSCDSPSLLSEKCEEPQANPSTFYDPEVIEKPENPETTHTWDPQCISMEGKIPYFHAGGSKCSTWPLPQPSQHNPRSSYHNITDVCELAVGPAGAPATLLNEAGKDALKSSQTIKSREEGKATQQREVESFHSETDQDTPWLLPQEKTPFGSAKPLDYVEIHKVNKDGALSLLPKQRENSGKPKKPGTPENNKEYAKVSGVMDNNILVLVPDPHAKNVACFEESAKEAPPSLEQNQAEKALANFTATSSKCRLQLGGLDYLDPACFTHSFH

Prl receptor antagonist Prl Δ1-9 S33A, Q73L, G129R, K190R (SEQ ID NO: 13) (from UniProt P01236 38-227) (ligand)
Invasion (AU), U251 MG cells, CytoSelect Cell Invasion Assay, OD 560 nm; Prl 200 ng/ml + antagonist 200 ng/ml (control 0.380): 0.379 AU | Invasion (AU), U251 MG cells, CytoSelect Cell Invasion Assay, OD 560 nm; antagonist alone (control 0.380): 0.385 AU

Source: patent US20170128527A1
